Ends that are not written are not given here. * marks the point of attachment. Myristoyl = CCCCCCCCCCCCCC(=O)*

Targets include myrUSH3 D10R; myrUSH3 K5A; myrUSH3 K7A.
Experiment in all cases: SPR
A general note: SPR reads the build-up and loss of mass on a sensor chip optically.

Series [1] concerns the target myristoylated Src N-terminal Regulatory Element (SNRE) of c-Src, wild type.
The series “SPR” concerns the molecule itself.

In the series with myrUSH3 D10R, myrUSH3 D10R (domain or fragment) returned a fold increase of dimerization relative to WT of 6 fold.
In the series with myrUSH3 K5A, myrUSH3 K5A (domain or fragment) gave a reduction of dimer formation relative to WT of 50% and a reduction of the dimer population relative to WT at the same protein density of 50%.
Take myrUSH3 K7A (domain or fragment): in the series with myrUSH3 K7A, the reduction of dimer formation relative to WT worked out at 50% and the reduction of the dimer population relative to WT at the same protein density was determined as 40%.
As usually defined, the stoichiometry N is a count of units in the complex or per binding partner. In turn, “myristoylated Src N-terminal Regulatory Element (SNRE) of c-Src, wild type (domain or fragment)” had a stoichiometry N in series [1] of 2.

B1: myristoylated synthetic peptide with residues 2-16 of c-Src (entire SH4 domain), wild type (peptide, UniProt P12931-1 2-16, looked up)
peptide: Myristoyl-GSNKSKPKDASQRRR
Regarding B1, the binding result in the series “SPR” is recorded as “binds”.

B2: myrSH4 R5R7R9 (triple arginine) (peptide, UniProt P12931 2-16, looked up)
peptide: Myristoyl-GSNRSRPRDASQRRR
As for B2, the binding result in the series “SPR” is “binds”.

The record behind these values is doi:10.1101/2022.05.31.494233 (bioRxiv, 2022).
